Data taken from US20250011388A1 (MONASH UNIVERSITY, published 2025).

B1: human CD80 (hCD80) expressed on CHO cells (ligand, UniProt P33681 35-288, looked up)
chain: VIHVTKEVKEVATLSCGHNVSVEELAQTRIYWQKEKKMVLTMMSGDMNIWPEYKNRTIFDITNNLSIVILALRPSDEGTYECVVLKYEKDAFKREHLAEVTLSVKADFPTPSISDFEIPTSNIRRIICSTSGGFPEPHLSWLENGEELNAINTTVSQDPETELYAVSSKLDFNMTTNHSFMCLIKYGHLRVNQTFNWNTTKQEHFPDNLLPSWAITLISVNGIFVICCLTYCFAPRCRERRRNERLRRESVRPV
notes: whole, on cells; In most assays co-expressed with human PDL1 on the same CHO cell (cis-CD80:PDL1 clones, e.g. clone 12); also called B7-1; cis-CD80:PDL1 cells

How the values were obtained:
[1] = biological target: T1, human PDL1 (hPDL1) expressed on CHO cells (human, UniProt Q9NZQ7 19-290); experiment: flow cytometry, CHO cells co-expressing human CD80 and PDL1 (cis interaction)
T1 construct: whole, on cells; Expressed alone (parental PDL1 clone) or with CD80 (cis-CD80:PDL1 clones)
T1 sequence (Q9NZQ7 19-290): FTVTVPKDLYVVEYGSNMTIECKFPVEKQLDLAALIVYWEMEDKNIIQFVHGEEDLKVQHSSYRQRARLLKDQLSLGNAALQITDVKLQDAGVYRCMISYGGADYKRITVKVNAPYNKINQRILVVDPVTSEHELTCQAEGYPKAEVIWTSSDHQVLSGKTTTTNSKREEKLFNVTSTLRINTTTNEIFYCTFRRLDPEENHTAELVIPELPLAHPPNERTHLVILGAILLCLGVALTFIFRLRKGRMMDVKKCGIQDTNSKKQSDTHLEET

[2] = biological target: B1; experiment: flow cytometry, anti-hIgG1 staining, cis-CD80:PDL1 CHO cells
Method: After washing to remove excess fusion protein and antibody, cell pellets were resuspended in 100 μL of FACS buffer (PBS with 10% FCS). Flow cytometry was performed on viable cells (based on SSC/FSC) using a BD LSRII or LSRFortessa (BD Biosciences), and cell sorting was performed using a BD Influx (BD Biosciences) with a 100 μm nozzle. […] All antibodies were used at a final dilution of 1:200 from stock.

binding result [1]	binding result [2]	Binder
binds		B1
	binds	MonoCTLA4-Ig (Fc fusion, not shown: C-terminal FLAG tag) MHVAQPAVVLASSRGIASFVCEYASPGKATEVRVTVLRQADSQVTEVCAATYMMGNELTFLDDSICTGTSSGNQVNLTIQGLRAMDTGLYICKVELMYPPPYYLGIGNGTQIYVIAKEKKPSYNRGLCENAPNRARMQEPKSSDKTHTSPPSPAPELLGGSSVFLFPPKPKDTLMISRTPEVTCVVVDVSHEDPEVKFNWYVDGVEVHNAKTKPREEQYNSTYRVVSVLTVLHQDWLNGKEYKCKVSNKALPAPIEKTISKAKGQPREPQVYTLPPSRDELTKNQVNLTCLVKGFYPSDIAVEWESNGQPENNYKTTPPVLDSDGSFFLNSTLTVDKSRWQQGNVFSCSVMHEALHNHYTQKSLSLSPGK
